Drawing on article PMC12319226 (Frontiers in Bioinformatics, 2025), this text covers Kd, koff and kon for seven molecules.

Holding throughout (assay): BLI
In general terms: Biolayer interferometry detects binding as a change in optical thickness at a sensor tip.

The target of one assay is mAb JAR5 (mouse) (mouse).
Assay [1] addresses chimeric antibody hJAR5 (mouse variable, human constant).
The target in assay [2] is T1, Neisseria meningitidis factor H binding protein variant 3.28 (Neisseria meningitidis, fHbp variant …, strain).
T1 construct: also called fHbp v3.28; fHbp variant 3.28
T1 chain: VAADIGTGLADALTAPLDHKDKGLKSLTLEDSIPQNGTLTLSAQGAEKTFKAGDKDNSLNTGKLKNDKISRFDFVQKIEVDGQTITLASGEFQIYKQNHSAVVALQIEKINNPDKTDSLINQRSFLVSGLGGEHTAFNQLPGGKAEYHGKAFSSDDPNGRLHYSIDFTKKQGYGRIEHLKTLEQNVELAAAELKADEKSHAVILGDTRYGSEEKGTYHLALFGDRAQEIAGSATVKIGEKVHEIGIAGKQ
As to conditions: both partners purified.

Another assay addresses T2, fHbp m002416 (Neisseria meningitidis, fHbp v3.28/v1.1 …, point mutant).
T2 construct: also called fHbp 2,416; Round 2 best mutant
T2 chain: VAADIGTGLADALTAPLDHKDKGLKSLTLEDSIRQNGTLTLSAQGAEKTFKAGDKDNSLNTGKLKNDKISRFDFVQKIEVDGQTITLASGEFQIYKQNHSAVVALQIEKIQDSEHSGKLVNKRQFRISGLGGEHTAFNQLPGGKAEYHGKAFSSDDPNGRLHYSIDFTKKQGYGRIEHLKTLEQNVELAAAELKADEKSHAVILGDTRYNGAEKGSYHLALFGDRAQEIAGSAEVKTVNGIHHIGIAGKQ
The conditions noted are these: both partners purified.

Assay [3] deals with T3, Neisseria meningitidis factor H binding protein variant 1.1 (Neisseria meningitidis, UniProt Q9JXV4).
T3 construct: also called fHbp v1.1; fHbp variant 1.1
The conditions noted are these: both partners purified.

In another assay the target is T4, fHbp m000019 (Neisseria meningitidis, fHbp v1.1 …, point mutant).
T4 construct: also called Round 1 best mutant
T4 chain: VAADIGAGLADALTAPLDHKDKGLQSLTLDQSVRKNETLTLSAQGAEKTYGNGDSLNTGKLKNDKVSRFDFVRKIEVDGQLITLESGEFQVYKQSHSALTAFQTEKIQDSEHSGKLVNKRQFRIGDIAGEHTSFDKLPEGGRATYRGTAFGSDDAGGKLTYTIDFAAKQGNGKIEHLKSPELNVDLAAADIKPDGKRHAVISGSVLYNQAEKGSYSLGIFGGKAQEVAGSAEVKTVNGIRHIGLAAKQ
As to conditions: both partners purified.

For assay [4], the target named is T5, factor H binding protein variant 3.28 (Neisseria meningitidis, fHbp variant …).
T5 construct: also called fHbp v3.28; v3.28 Control (0002)
T5 chain: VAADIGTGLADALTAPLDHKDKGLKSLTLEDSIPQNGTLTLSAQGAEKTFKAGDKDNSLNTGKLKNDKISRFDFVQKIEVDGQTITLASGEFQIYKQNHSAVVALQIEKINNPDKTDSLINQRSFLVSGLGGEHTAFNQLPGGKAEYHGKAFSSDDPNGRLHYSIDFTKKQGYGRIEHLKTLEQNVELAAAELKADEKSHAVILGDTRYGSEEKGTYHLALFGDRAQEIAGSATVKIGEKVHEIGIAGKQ
As to conditions: both partners purified.

Assay [5] deals with T6, factor H binding protein variant 1.1 (Neisseria meningitidis serogroup B …, UniProt Q9JXV4).
T6 construct: also called fHbp v1.1; v1.1 Control (0001)
As to conditions: both partners purified.

In assay [6] the target is T5, factor H binding protein variant 3.28. The conditions noted are these: both partners purified.

A value given as a limit tells only on which side of the number the result lay.

The term Kd denotes the constant that tells how readily two partners part at equilibrium. One may read the koff as a measure of how fast the partners let go of each other. Low readings indicate slow dissociation, high ones fast dissociation. As a reminder, the kon is the second-order rate constant of association. High values mean fast association, low ones slow association. In the assay with mAb JAR5 (mouse) (mouse), “fHbp m000006 (from UniProt E6MV22 20-274) (natural protein)” came in with a dissociation constant (Kd) of less than 0.001 nM, a koff of less than 1e-07 s⁻¹ and a kon of 642000 M⁻¹ s⁻¹. In [1], the dissociation constant Kd is 0.922 nM, the koff amounted to 0.000499 s⁻¹ and the on-rate constant (kon) is 541000 M⁻¹ s⁻¹.

B1: human mAb 1E6 (antibody, V domains shown)
VH: EVQLVQSGAEVKKPGSSVKVSCKASGGTVIDYPITWVRQAPGQGLEWVGGFVPLFRTSNYGQKFQGRVTITADKSTSTASMELNSLTSEDTAIYYCARGDTAMGPFDYWGQGTLVTVSS
VL: SYVLTQPPSLSVAPGKTATLTCGGNNIAGKTVHWYQQRPGQAPVLVISYDSDRPSGIPERFSGSNSANTATLTISRVEAGDEADYYCQVWDRNSDHWVFGGGTKLTVL
notes: source: Expi293, transient transfection, purified (MabSelect SuRe, SEC)
On to B1, for which the dissociation constant (Kd) was 2 to 4 nM in [2], 0.32 nM in the assay with fHbp m002416, 3 to 10 nM in [3] and 0.8 nM in the assay with fHbp m000019.

B2: human mAb 4B3 (antibody, V domains shown)
VH: QVQLVQSGGGLVKPGGSLRLSCAASGFPFSSYYMSWIRQAPGKGLEWVSDINNSGNVKEYADFVKGRLTISRDNVKNSMYLHMNSLRVEDTAVYYCARNRGRFDVWGQGTLVTVSA
VL: EIVMTQSPGTLSLSPGETATLSCRASQMISSPFLAWYQQRRGQAPRLLIYGASTRATDTPDRFRGSGSGTDFILTISRLEPEDFAVYYCQYYDDSPFTFGQGTKLEIK
notes: as for B1
Turning to B2, the dissociation constant (Kd) is 5 to 6 nM in assay [2], 3.8 nM in the assay with fHbp m002416, 1 to 5 nM in [3] and 2.4 nM with fHbp m000019.

B3: human mAb 1A12 (antibody, V domains shown)
VH: EVQLVQSGAELKKPGESLKISCKASGYTFTNYWVVWVRQMPGEGLEWMGSIHPRDSDARYSLSFEGRVTFSVDKSTTTAYLQWSSLKVSDSAIYYCARLSQVSGWSPWVGPWGQGTLVTVSS
VL: DIVMTQSPSSLSASVGDRVTITCRASQSISVSLNWYQQKPGKAPKVLIYAASRLQSGIPSRFSGSGSGSHFTLTISSLQPEDFATYYCQETYSDLMYTFGQGTKVEIK
notes: as for B1
For B3, the Kd in assay [2] lay in the range of 7 to 20 nM.

B4: mAb 1A12 (human) (antibody, V domains shown)
VH: EVQLVQSGAELKKPGESLKISCKASGYTFTNYWVVWVRQMPGEGLEWMGSIHPRDSDARYSLSFEGRVTFSVDKSTTTAYLQWSSLKVSDSAIYYCARLSQVSGWSPWVGPWGQGTLVTVSS
VL: DIVMTQSPSSLSASVGDRVTITCRASQSISVSLNWYQQKPGKAPKVLIYAASRLQSGIPSRFSGSGSGSHFTLTISSLQPEDFATYYCQETYSDLMYTFGQGTKVEIK
notes: source: Expi293, purified (MabSelect SuRe, SEC); copies: 2 + 2
As for B4, the dissociation constant Kd in [4] was 65.9 nM; in assay [5], less than 0.001 nM; in assay [6] it was 20.4 nM.

B5: chimeric antibody h12C1 (antibody, V domains shown)
VH: QVQLQESGPELVKPGASVKISCKASGYSFSDYNMSWVKQSNGKSLEWIGIIDPKYGTINYNQKFKGKATLTVDQASSTAYMQLNSLTSEDSAVYYCVRDYYGSSYFDYWGQGTTLTVSS
VL: DIVLTQSPSSIYASLGERVTLTCKASQDIHNYLNWFQQKPGKSPKTLIYRANRLVDGVPSRFSGGGSGQDYSLTISSLEFEDIGIYYCLQYDEFPPTFGGGTRLEIK
notes: also called humanized 12C1 mAb; source: Expi293, transient transfection, purified (MabSelect SuRe, SEC)
As to B5, the values for the Kd (with fHbp m002416; in assay [3]) were 0.293 nM and 0.1 to 0.8 nM, respectively.

B6: chimeric antibody hJAR5 (antibody, V domains shown)
VH: QVQMQQPGAELVKPGASVKLSCKASGYTFISYWMHWVKQRPGRGLEWIGRIAPDTGIIYYNEKFKNKATLTVDTPSSTAYMQLNSLTSEDSAVYYCARYLKYDGSTYRFDYWGQGTTLTVSS
VL: DIVMTQAAPSVPVTPGESVSISCRSSKSLLHSNGNTYLFWFLQRPGQSPQLLIYRMSNLASGVPDRFSGSGSGTSFTLRISRVEAEDVGVYYCMQHLEYPYTFGGGTKLEIK
The molecule B6 had a dissociation constant (Kd) with fHbp m002416 of 0.631 nM.
